Among the data in patent US20060121032A1 are ADCC EC50 (ng/ml), DoHH-2 target cells, human PBMCs, ADCC log(EC50), DoHH-2 target cells, human PBMCs and Kd values, retold here.

The target of test [1] is FcγRIIIa on human PBMCs expressing heterozygous V158/F158 FcγRIIIa (human) (UniProt P08637). Nature of the test: cell-based or functional assay.
Test [2] deals with extracellular region of human F158 FcγRIIIa with C-terminal 6×His-tag and GST-tag (human) (UniProt P08637). Nature of the test: SPR, receptor on chip.
Chain of extracellular region of human F158 FcγRIIIa with C-terminal 6×His-tag and GST-tag (human) (P08637 17-208): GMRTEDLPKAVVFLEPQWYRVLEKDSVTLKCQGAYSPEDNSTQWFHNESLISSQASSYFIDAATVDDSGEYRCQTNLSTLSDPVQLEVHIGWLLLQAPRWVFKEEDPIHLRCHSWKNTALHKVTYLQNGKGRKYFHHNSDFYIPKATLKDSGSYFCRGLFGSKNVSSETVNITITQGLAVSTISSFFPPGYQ

Chain of FcγRIIIa on human PBMCs expressing heterozygous V158/F158 FcγRIIIa (human) (P08637 17-254): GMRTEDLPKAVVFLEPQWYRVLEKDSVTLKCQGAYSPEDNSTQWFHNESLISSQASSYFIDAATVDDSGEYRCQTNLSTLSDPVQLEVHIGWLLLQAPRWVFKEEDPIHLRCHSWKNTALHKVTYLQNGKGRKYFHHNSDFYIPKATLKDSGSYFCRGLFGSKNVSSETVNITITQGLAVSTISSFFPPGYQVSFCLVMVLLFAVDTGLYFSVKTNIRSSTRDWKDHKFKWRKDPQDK

Take alemtuzumab S239D/I332E (antibody): in test [1], the ADCC EC50 (ng/ml), DoHH-2 target cells, human PBMCs was found to be 3 ng/mL and the ADCC log(EC50), DoHH-2 target cells, human PBMCs was 0.49 log(ng/ml).

A word on the Kd: it is the equilibrium constant for the complex coming apart. Take alemtuzumab I332E (antibody): the dissociation constant (Kd) in test [2] worked out at 0.072 µM.

“alemtuzumab S298A/E333A/K334A (antibody)” showed a Kd in test [2] of 0.156 µM.

For alemtuzumab V264I (antibody), the Kd in test [2] worked out at 0.55 µM.

As for alemtuzumab S298A (antibody), the Kd in test [2] is 0.285 µM.

For alemtuzumab V264I/I332E (antibody), the Kd in test [2] was determined as 0.052 µM. For the same substance, in test [1], the ADCC EC50 (ng/ml), DoHH-2 target cells, human PBMCs was determined as 4 ng/mL and the ADCC log(EC50), DoHH-2 target cells, human PBMCs is 0.6 log(ng/ml).

WT alemtuzumab (antibody) came in with a Kd in test [2] of 0.73 µM.
